According to the RNAGym collection of RNA variant scans (doi:10.1073/pnas.2313332121):

B1: TPR t1 (parent)
chain: GACCAAUCUGCCCUCAGAGCUCGAGAACAUCUUCGGAUGCAGAGGAGGCAGGCUUCGGUGGCGCGAUAGCGCCAACGUCCUCAACCUCCAAUGCAUCCCACCACAUGAUGAUGCCUGAAGAGCCUUGGUUUUUUG

Variants of: B1
Assay: polymerase ribozyme fitness, log enrichment relative to wild type (log ratio); higher = more active; in vitro selection for triplet polymerase activity
Summary of the method: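 Mutant libraries of each subunit of a heterodimeric triplet polymerase ribozyme were built by PCR and transcribed. Each library went through one round of in vitro selection in triplicate: annealing with biotinylated primer, partner subunit and triplets, frozen incubation at −7 °C, gel excision of extended constructs, streptavidin-bead capture and RT-PCR. Input and output libraries were Illumina-sequenced; only genotypes with ≥10 input reads and ≥1 read per output were kept. Fitness is log2(genotype enrichment/wild-type enrichment), using inverse-variance-weighted replicate averages.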
For GACCAAUCUGCCCUCAGAGCUCGAGAACAUCUUCGGAUGCAGAGGAGGCAGGCUUCGGUCGCGCGAUAGCGCCAACGUCCUCAACCUCCAAUGCAUCCCACCACAUGAUGAUGCCUGAAGAGCCUUGGUUUUAUG [G60C U133A], the “polymerase ribozyme fitness (log ratio)” value was -0.621.
In the case of GACCAAUCUGCCCUCAGAGCUCGAGAACAUCUUCGGAUGCAGAGGAGGCAGGCUUCGGUCGCGCGAUAGCGCCAACGACCUCAACCUCCAAUGCAUCCCACCACAUGAUAUUGCCUGAAGAGCAUUGGUUUUAUG [G60C U78A G110A A111U C124A U133A], the “polymerase ribozyme fitness (log ratio)” value is reported as -2.76.
In the case of GACCAAUCUGCCCUCAGAGCUCGAGAACAUCUUCGGAUGCAGAGGAGGCAGGCUUCGGUUGCGCGAUAGCGCCAACGUCCUCAACCUCCAAUGCAUCCCACCCCAGGAUGAUGCCUGAAGAGCCAUGGUUUUUUG [G60U A103C U106G U125A], the “polymerase ribozyme fitness (log ratio)” value is reported as -5.2.
For GACCAAUCUGCCCUCAGAGCUCGAGAACAUCUUCGGAUGCAGAGGAGGCAGGCUUCGGUCCCGCGAUAGCGCCAACGUCCGCAACCUCCAAUGCAUCCCACCACAUGAUGAUGCUUGAAGAGCCUUGGUUUUUUG [G60C G61C U81G C115U], the “polymerase ribozyme fitness (log ratio)” value was -5.37.
In the case of GACCAAUCUGCCCUCAGAGCUCGAGAACAUCUUCGGAUGCAGAGGAGGCAGGCUUCGGUUGUGCGAUAGCGCCAACGUCCUCAACCUCCAAUGCAUCCCACCACAUGAUGAUGCCUGAAGAGCCUUGGUUUUUUG [G60U C62U], the “polymerase ribozyme fitness (log ratio)” value is reported as -0.758.
In the case of GACCAAUCUGCCCUCAGAGCUCGAGAACAUCUUCGGAUGCAGAGGAGGCAGGCUUCGGUCGCGCGAUAGCGCCAACGUCCUCAACCUCCAAUGCAUCCCACCACAUGAUGAUGCCCGAAGAGCCUUGGUUUUUUG [G60C U116C], the “polymerase ribozyme fitness (log ratio)” value is reported as -1.73.
With GACCAAUCUGCCCUCAGAGCUCGAGAACAUCUUCGGAUGCAGAGGAGGCAGGCUUCGGUCGCGCGAUAGCGCCAACGUCCUCAACCUCCAAUGCAUCCCACCACAUGAUGAUGCCUGAAGAGCCUUGGUUUAUUG [G60C U132A] the “polymerase ribozyme fitness (log ratio)” value was -0.171.
For GACCAAUCUGCCCUCAGAGCUCGAGAACAUCUUCGGAUGCAGAGGAGGCAGGCUUCGGUCGCGCGAUAGCGCCAACGUCCUCAACCUCCAAUGCAACCCACCACAUGAUGAUGCCUGAAGAGCCUUGGUUUUUUG [G60C U96A], the “polymerase ribozyme fitness (log ratio)” value was -1.77.
In the case of GACCAAUCUGCCCUCAGAGCUCGAGAACAUCUUCGGAUGCAGAGGAGGCAGGCUUCGGUUGCGCGAUAGCGCCAACGUCCUCAACCUCCAAUGCAUCCCACCACAUGAUGAUGCCUGAAGAGCCUUGGUUUUUUG [G60U], the “polymerase ribozyme fitness (log ratio)” value is reported as 0.0514.
In the case of GACCAAUCUGCCCUCAGAGCUCGAGAACAUCUUCGGAUGCAGAGGAGGCAGGCUUCGGUCGCGCGAUAGCGCCAACGUCCUCAACCUCCAAUCCAUCCCACCACAUGAUGAUGCCUGAAAAGCCUCGGUUUUUUG [G60C G93C G120A U126C], the “polymerase ribozyme fitness (log ratio)” value is reported as -0.901.
In the case of GACCAAUCUGCCCUCAGAGCUCGAGAACAUCUUCGGAUGCAGAGGAGGCAGGCUUCGGUCGCGCGAUAGCGCCAACGUCCUCAACCUCCAAUGCAUCCCACCACAUGAUGAGGCCUGAAGAGCAUUGGUUUUUUG [G60C U112G C124A], the “polymerase ribozyme fitness (log ratio)” value is reported as -0.118.
For GACCAAUCUGCCCUCAGAGCUCGAGAACAUCUUCGGAUGCAGAGGAGGCAGGCUUCGGUCGCGCGAUAGCGCCAACGUCCUCAACCUCCAAUGCAUCCCACCACAUGAUGAUGCCUGAAGAGCCUUGGUUUUUUA [G60C G135A], the “polymerase ribozyme fitness (log ratio)” value was -1.35.
In the case of GACCAAUCUGCCCUCAGAGCUCGAGAACAUCUUCGGAUGCAGAGGAGGCAGGCUUCGGUCGCGCGAUAGCGCCAACGUCCUCAACCUCCAAUGCAUCCCACCACAUGAUGAUGCCUGAAGAGCCUUGGUUUUUUU [G60C G135U], the “polymerase ribozyme fitness (log ratio)” value is reported as -1.23.
In the case of GACCAAUCUGCCCUCAGAGCUCGAGAACAUCUUCGGAUGCAGAGGAGGCAGGCUUCGGUUGCGCGAUAGCGCCAACGUCCUCAACCUCCAAUGCAUCCCACCACAUGAUGAUGCCUGAAGCGCCUUGGUUUUUUG [G60U A121C], the “polymerase ribozyme fitness (log ratio)” value is reported as 1.48.
For GACCAAUCUGCCCUCAGAGCUCGAGAACAUCUUCGGAUGCAGAGGAGGCAGGCUUCGGUCGCGCGAUAGCGCCAACGUCCUCAACCUCCAAUGCAUCCCACCACAUGAUGAUGCCUGAAGAGCCUUGAUUUUUUG [G60C G128A], the “polymerase ribozyme fitness (log ratio)” value was -2.48.
With GACCAAUCUGCCCUCAGAGCUCGAGAACAUCUUCGGAUGCAGAGGAGGCAGGCUUCGGUUGCGCGAUAGCGCCAACGUCCUCAGCUUCCAAUGCAUCCCACCACAUGAUGAUGCCUGAAGAGCCUUGGUUUUUUC [G60U A84G C86U G135C] the “polymerase ribozyme fitness (log ratio)” value was -0.459.
With GACCAAUCUGCCCUCAGAGCUCGAGAACAUCUUCGGAUGCAGAGGAGGCAGGCUUCGGUUGCGCGAUAGCGCCAACGUCCUCAACCUCCAAUGCAUCCCACCUCAUGAUGAUGCCUGAAGAGCCUUGGUUUUUUG [G60U A103U] the “polymerase ribozyme fitness (log ratio)” value was -4.99.
In the case of GACCAAUCUGCCCUCAGAGCUCGAGAACAUCUUCGGAUGCAGAGGAGGCAGGCUUCGGUCGCGCGAUAGCUCCAACGUCCUCAACCUCCAAUGCAUCCCACCACAUGAUGAUGCCUGAAUAGCCUUGGUGUUUUG [G60C G71U G120U U130G], the “polymerase ribozyme fitness (log ratio)” value is reported as -5.39.
With GACCAAUCUGCCCUCAGAGCUCGAGAACAUCUUCGGAUGCAGAGGAGGCAGGCUUCGGUCGCGCGAUAGCGCCAACGUCCCCAACCUCCAAUGCAUCCCACCACAUGAUGAUGCCUGAAGAGCCUUGGUUUUUUG [G60C U81C] the “polymerase ribozyme fitness (log ratio)” value was -0.172.
In the case of GACCAAUCUGCCCUCAGAGCUCGAGAACAUCUUCGGAUGCAGAGGAGGCAGGCUUCGGUCUCGCGAUAGCGCCAACGUCCUCAACCUCCAAUGCAUCCCACCACAUGAUGAUGCCUGAAGAGCCUUGGUUUUUUG [G60C G61U], the “polymerase ribozyme fitness (log ratio)” value is reported as -1.76.
In the case of GACCAAUCUGCCCUCAGAGCUCGAGAACAUCUUCGGAUGCAGAGGAGGCAGGCUUCGGUUGCGCGAUAGCGCCAACGUCCUCAACCUCCAGUGCAUCCCACCACAUGAUGAUGCCUGAAGAGUCUUGGUUUUUUG [G60U A91G C123U], the “polymerase ribozyme fitness (log ratio)” value is reported as -0.372.
